One molecule from publication PMC3286128 (Biochemistry, 2012) can be followed below.

This test deals with purified monomeric human β-actin (G-actin) (human, UniProt P60709 1-375). Kind of test: pull-down.

B1: sv1_(360–420ARM) peptide (peptide)
peptide: not shown
modifications: amino-terminal biotin
Turning to B1, the binding result is on record as “binds”.
